# Measurements reported in paper PMC8971466.
# Assay: SEC; SE-HPLC, TSK-gel SuperSW3000; 0.1 M phosphate, 0.1 M potassium sulfate pH 6.7; scFv at 0.1 mg/mL, 25 °C, 0.3 mL/min; monomer and dimer peaks told by molecular weight standards, percentages from peak areas
substance,measurement,value
"L1, anti-VEGF scFv derived from bevacizumab with non-repetitive linker",Monomer/dimer ratio (monomer %),95.7%
